Experimental data published in US20110311550A1 (Scripps Research, published 2011).
Changes are numbered by the printed parent chain.

B1: Fab O1 (Fab, V domains shown)
VH: VQLLEQSGAEVKKAGESVRLSCKASGYRFGDYWIAWVRQLPGRAPEWMGIIYPDDSDTKYSPSFQGQVTISADKSIRTTFLDWGSLKASDTAIYYCARGCLGAKCYYPHYYYGLDVWGQGTTVIVSS
VL: ELTQSPSSLSASVGDRVTITCRATQGIDNYLNWYQQKPGKPPRLLIYGASSLQSGVPSRFSGGGSGTHFTLTITNLQPEDFATYYCQQSYSTPPETFGQGTKVEIKR
B2: Fab N1 (Fab, V domains shown)
VH: VQLLEQSGPEVKKPGDSLRISCKMSGDSLVTTWIGWVRQKPGQGLEWMGIINPGDSSTNIYPGDSATRYGPSFQGQVTISIDKSTSTAYLQWNAVKPSDTGIYYCARHVPVPISGTFLWREREMHDFGYFDDWGQGTLVIVSS
VL: ELTQSPGTLSLSPGERATLSCRASQSVSSSYLAWYQQKPGQAPRLLIYGASNRAAGIPDRFSGSGSGADFTLTISRLEPEDFAVYYCQQYGSSLITFGQGTRLEIKR
B3: Fab N4 (Fab, V domains shown)
VH: B2 VH with A94N, P97A
VL: ELTLTQSPGTLSLSPGERATLSCRASQSVSNNYLAWYQQKPGQAPRLLIYGASSRATGIPDRFSGSGSGTGFTLIISRLEPEDFAVYYCQQYGSSSITFGQGTRLEIKR
B4: Fab N2 (Fab, V domains shown)
VH: B2 VH with A94T
VL: ELTQSPGTLSLFPGERATLSCRASQSILGRYLAWYQQKGGRAPRLLIFGASKRATGIPDRFSGSGSGTDFTLTIGRLEPEDFAVYYCQHYGSSITFGQGTRLDIKR
B5: Fab P1 (Fab, V domains shown)
VH: EVQLLESGGGVVQPGGSLRLSCAASGFTFTSFTMHWVRQAPGKGLEWVALISHDGSNKDYADSVRGRFTVSRDNSKKMVYLQMSSLRPDDAAVYYCARGGPAYYTYSDTLTGYHNVVGDYWGQGTLVTVSS
VL: ELTQSPGTLSLSPGERATLSCRASQVRGFLAWFQQKPGQAPRLLIYGASNRAPGIPDRFSGSGSGTDFTLTISRLEPEDFAVYYCQQYGDSPPITFGQGTRLEIKR
B6: Fab P1a (Fab, V domains shown)
VH: B5 VH
VL: ELTQSPGTLSLSPGERATLSCRTSQSVSSTYLAWYQQKPGQPPRLLIYGASNRAPGIPDRFSGSGSGTDFTLTISRLEPEDFAVYYCQQYGDSPPITFGQGTRLDIKR
B7: Fab P4 (Fab, V domains shown)
VH: not shown
VL: ELTQSPGTLSLSPGERATLSCRASQSVSSSNLAWFQHKSGRAPRLLIYGASNRAPDIPDRFSGSGSGTDFTLSISRLEPEDFAVYYCQRYGDSPPITFGQGTRLEIKR
B8: Fab P6 (Fab, V domains shown)
VH: EVQLLESGGGVVQPGKSLTVSCAASGFTFSTFTMHWVRQAPGKWLEWVAVISHDGGTEHYADSVTGRFTISRDNSKNTLHMQMNSLRLEDTAVYFCARGGPAYYLYNDVLTGYYNVVGDFWGQGTLVTVSS
VL: B7 VL with T3I, S10F, P13S, L72I
B9: Fab P2 (Fab, V domains shown)
VH: EVQLLESGGGVVQPGRSLRLSCAASGFTLDTFTMHWVRQSPGKGLEWVALISHDANNKDYADSVKGRFTISRDNSKKLVYLQMDSLRSEDTAVYYCARGGPAYYLYSDVLTGFHNVVGDYWGQGTLVTVSA
VL: not shown
B10: Fab V1 (Fab, V domains shown)
VH: VQLLEQSGAEVQKPGASVKVSCKPSGYIFTNFGISWVRQAPGQGLEWMAWINTYNGKTTYAQSLQGRVTLTTDPYTNTVFMELRSLRSDDTAVYYCARENEGEYVWGHFRSDYWGQGTLVTVSS
VL: ELTQSPSSLSASVGDRVTITCQASQDISNFLNWYQRRPGKAPNLLIYDATHLETGVPSRFSGSGFGTHFTLTINSLQPEDIGTYYCQHFDDVPSFTFGPGTKVDLKR
B11: Fab P3 (Fab, V domains shown)
VH: EVQLLESGGGVVQPGKSLRLSCAVSGFTLNTFAMHWVRQVPGKGLEWVALTSHDGSRQDYADSVRGRFTISRDNSKSMVFLLMNSLRAEDTAVYYCVRGGPAYYTYNDVLTGYAYVVGDFWGQGTLVTVSS
VL: not shown
B12: Fab N3 (Fab, V domains shown)
VH: VQLLEQSGAEVKKPGDSLRISCKMSGDSLVWIGWVRQKPGQGLEWMGIINPGDSATNIYPGDSDTRYGPSFQGQVTISIDKSTSTAYLQWNAVKASDTGIYYCARHVPVPISGTFLWREREMHDLGYFDDWGQGTLVIVSS
VL: not shown
B13: Fab Q1 (Fab, V domains shown)
VH: VQLLEQSGAEVRKPGASVKVSCKASGYTFTNNGLNWVRQAPGQGLEWMGWISPYNGDTDFAHKFQGRISMTTDTSTNTAYMELRSLRSDDTAVYYCARDRNSAGGTWLFRDPPPGSTFFDSWGQGSLVTVSS
VL: not shown
B14: Fab Q2 (Fab, V domains shown)
VH: B13 VH with R12K
VL: ELTQSPASLSLSPGGSATLACRASRGVNSNLAWYHQKPGQAPRLLIYSASTRATGIPGRFSGSGFGTEFTLTINNLQSDDFGVYYCQQYDDTPQITFGQGTRLDIKR

Columns and labels:
Experiment in all cases: ELISA, Fab on E1E2 antigen
[1] = molecular target: HCV E1E2 antigen, isolate UKN4.21.16 (hepatitis C virus, isolate UKN4.21.16)
[2] = molecular target: HCV E1E2 antigen, isolate UKN1B12.16 (hepatitis C virus, isolate UKN1B12.16)
[3] = molecular target: HCV E1E2 antigen, isolate CH35 (hepatitis C virus, isolate CH35)
[4] = molecular target: HCV E1E2 antigen, isolate OH8 (hepatitis C virus, isolate OH8)
[5] = molecular target: T1, HCV E1E2 antigen, isolate JFH (hepatitis C virus, isolate JFH, UniProt Q99IB8 192-383; Q99IB8 384-750)
T1 construct: also called JFH-1

[6] = molecular target: HCV E1E2 antigen, isolate UKN2B1.1 (hepatitis C virus, isolate UKN2B1.1)
[7] = molecular target: HCV E1E2 antigen, isolate UKN5.15.7 (hepatitis C virus, isolate UKN5.15.7)
[8] = molecular target: HCV E1E2 antigen, isolate UKN6.5.8 (hepatitis C virus, isolate UKN6.5.8)
[9] = molecular target: HCV E1E2 antigen, isolate J6E3 (hepatitis C virus, isolate J6E3, UniProt P26660 192-383; P26660 384-750)
[10] = molecular target: HCV E1E2 antigen, isolate UKN3A1.28c (hepatitis C virus, isolate UKN3A1.28c)

Binder	OD 450 nm [1]	OD 450 nm [2]	OD 450 nm [3]	OD 450 nm [4]	OD 450 nm [5]	OD 450 nm [6]	OD 450 nm [7]	OD 450 nm [8]	OD 450 nm [9]	OD 450 nm [10]
B1	0.57 OD 450 nm	0.17 OD 450 nm	0.27 OD 450 nm	0.44 OD 450 nm	0 OD 450 nm	0.02 OD 450 nm	0.1 OD 450 nm	0.02 OD 450 nm	0.05 OD 450 nm	0.48 OD 450 nm
B2	0.93 OD 450 nm	0.65 OD 450 nm	0.59 OD 450 nm	1.13 OD 450 nm	0.99 OD 450 nm	0.33 OD 450 nm	0.43 OD 450 nm	0.29 OD 450 nm	0.64 OD 450 nm	1.08 OD 450 nm
B3	1.49 OD 450 nm	1.06 OD 450 nm	1.03 OD 450 nm	1.75 OD 450 nm	1.57 OD 450 nm	0.48 OD 450 nm	0.71 OD 450 nm	0.44 OD 450 nm	0.99 OD 450 nm	1.73 OD 450 nm
B4	1.09 OD 450 nm	0.81 OD 450 nm	0.82 OD 450 nm	1.44 OD 450 nm	1.34 OD 450 nm	0.44 OD 450 nm	0.46 OD 450 nm	0.4 OD 450 nm	0.92 OD 450 nm	1.36 OD 450 nm
B5	0.62 OD 450 nm	0.26 OD 450 nm	0.27 OD 450 nm	0.8 OD 450 nm		0.03 OD 450 nm	0.17 OD 450 nm	0.06 OD 450 nm	0.08 OD 450 nm	0.98 OD 450 nm
B6	0.04 OD 450 nm	0.15 OD 450 nm	0.08 OD 450 nm	0.24 OD 450 nm	0 OD 450 nm	0 OD 450 nm	-0.04 OD 450 nm	0.05 OD 450 nm	0.03 OD 450 nm	0.18 OD 450 nm
B7	0.99 OD 450 nm	0.59 OD 450 nm	0.52 OD 450 nm	1.15 OD 450 nm	0.45 OD 450 nm	0.09 OD 450 nm	0.31 OD 450 nm	0.19 OD 450 nm		1.07 OD 450 nm
B8	0.23 OD 450 nm	0.26 OD 450 nm	0.21 OD 450 nm	0.46 OD 450 nm	0 OD 450 nm	0.13 OD 450 nm	0.08 OD 450 nm	0.12 OD 450 nm	0.02 OD 450 nm	0.37 OD 450 nm
B9	0.78 OD 450 nm	0.59 OD 450 nm	0.47 OD 450 nm	1 OD 450 nm	0.88 OD 450 nm	0.18 OD 450 nm	0.25 OD 450 nm	0.22 OD 450 nm	0.6 OD 450 nm	1.05 OD 450 nm
B10	1.02 OD 450 nm	0.16 OD 450 nm	0.77 OD 450 nm	1.35 OD 450 nm		0.3 OD 450 nm	0.3 OD 450 nm	0.05 OD 450 nm		0.06 OD 450 nm
B11	0.15 OD 450 nm	0.2 OD 450 nm	0.11 OD 450 nm	0.36 OD 450 nm	0 OD 450 nm	0 OD 450 nm	0.06 OD 450 nm	0.03 OD 450 nm	0.11 OD 450 nm	0.33 OD 450 nm
B12	0.96 OD 450 nm	0.62 OD 450 nm	0.59 OD 450 nm	1.32 OD 450 nm	1.2 OD 450 nm	0.29 OD 450 nm	0.37 OD 450 nm	0.23 OD 450 nm	0.66 OD 450 nm	1.27 OD 450 nm
B13	0.85 OD 450 nm	0.38 OD 450 nm	0.48 OD 450 nm	0.96 OD 450 nm	0.43 OD 450 nm	0.03 OD 450 nm	0.3 OD 450 nm	0.1 OD 450 nm	0.19 OD 450 nm	1.07 OD 450 nm
B14	0.17 OD 450 nm	0.21 OD 450 nm	0.19 OD 450 nm	0.43 OD 450 nm	0.18 OD 450 nm	0.15 OD 450 nm	0.05 OD 450 nm	0.16 OD 450 nm	0.25 OD 450 nm	0.35 OD 450 nm
